From patent US20220332804A1 (CSL INNOVATION, published 2022)

Assays:
human C2 V455A = target: T1, human C2 V455A (human, UniProt P06681 21-752); experiment: SPR, KD relative to WT C2;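 also: biacore SPR at 37 °C, anti-C2 mAbs captured on anti-human IgG chips with alanine or serine point mutants of C2 as analyte, KD from 1:1 fit compared with wild-type C2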
T1 sequence: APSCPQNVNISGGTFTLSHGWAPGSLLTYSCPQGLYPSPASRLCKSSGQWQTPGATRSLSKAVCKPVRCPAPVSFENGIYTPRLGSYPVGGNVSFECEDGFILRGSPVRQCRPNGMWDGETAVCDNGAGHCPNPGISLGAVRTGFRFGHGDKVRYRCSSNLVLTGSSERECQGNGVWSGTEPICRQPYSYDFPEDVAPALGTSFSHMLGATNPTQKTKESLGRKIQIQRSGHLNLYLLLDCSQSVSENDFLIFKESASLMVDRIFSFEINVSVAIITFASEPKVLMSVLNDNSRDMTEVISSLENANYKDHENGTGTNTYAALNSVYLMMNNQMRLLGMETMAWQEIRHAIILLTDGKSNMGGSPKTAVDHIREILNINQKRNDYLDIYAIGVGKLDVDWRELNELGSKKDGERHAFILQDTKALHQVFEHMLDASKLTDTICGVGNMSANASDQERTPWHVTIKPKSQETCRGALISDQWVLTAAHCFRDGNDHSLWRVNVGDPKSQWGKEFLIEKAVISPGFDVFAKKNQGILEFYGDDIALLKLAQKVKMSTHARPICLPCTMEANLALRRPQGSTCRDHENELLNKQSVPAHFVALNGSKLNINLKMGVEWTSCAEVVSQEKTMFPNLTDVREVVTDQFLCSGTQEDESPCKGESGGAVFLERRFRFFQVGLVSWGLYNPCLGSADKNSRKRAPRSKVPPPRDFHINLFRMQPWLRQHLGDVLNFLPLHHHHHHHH

human C2 A472S = target: T2, human C2 A472S (human, UniProt P06681 21-752); experiment: SPR, KD relative to WT C2;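 also: biacore SPR at 37 °C, anti-C2 mAbs captured on anti-human IgG chips with alanine or serine point mutants of C2 as analyte, KD from 1:1 fit compared with wild-type C2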
T2 sequence: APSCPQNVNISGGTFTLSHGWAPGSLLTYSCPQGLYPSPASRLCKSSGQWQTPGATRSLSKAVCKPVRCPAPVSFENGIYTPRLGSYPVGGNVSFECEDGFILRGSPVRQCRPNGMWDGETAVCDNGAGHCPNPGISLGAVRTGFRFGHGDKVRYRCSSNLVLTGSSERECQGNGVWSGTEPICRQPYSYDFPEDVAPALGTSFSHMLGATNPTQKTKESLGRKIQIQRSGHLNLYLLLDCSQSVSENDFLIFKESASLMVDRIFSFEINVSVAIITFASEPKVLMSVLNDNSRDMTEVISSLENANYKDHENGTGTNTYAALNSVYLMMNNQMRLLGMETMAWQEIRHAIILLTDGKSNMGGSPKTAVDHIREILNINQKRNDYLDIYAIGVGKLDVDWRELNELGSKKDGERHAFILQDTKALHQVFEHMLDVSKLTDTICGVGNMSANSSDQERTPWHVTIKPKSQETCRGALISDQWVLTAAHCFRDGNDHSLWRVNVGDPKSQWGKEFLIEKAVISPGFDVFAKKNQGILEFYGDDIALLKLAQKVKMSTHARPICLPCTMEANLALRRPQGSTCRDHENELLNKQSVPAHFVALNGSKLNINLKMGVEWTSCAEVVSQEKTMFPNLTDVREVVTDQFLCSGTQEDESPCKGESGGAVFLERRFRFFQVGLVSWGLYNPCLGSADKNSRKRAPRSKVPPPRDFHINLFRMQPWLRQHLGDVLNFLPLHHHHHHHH

human C2 H446A = target: T3, human C2 H446A (human, UniProt P06681 21-752); experiment: SPR, mAb captured, C2 mutant analyte;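 also: Anti-C2 mAbs captured on goat anti-human IgG Biacore CM5 chips, alanine or serine C2 surface mutants flowed over at 37 °C, double-referenced sensorgrams fitted to a 1:1 binding model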
T3 sequence: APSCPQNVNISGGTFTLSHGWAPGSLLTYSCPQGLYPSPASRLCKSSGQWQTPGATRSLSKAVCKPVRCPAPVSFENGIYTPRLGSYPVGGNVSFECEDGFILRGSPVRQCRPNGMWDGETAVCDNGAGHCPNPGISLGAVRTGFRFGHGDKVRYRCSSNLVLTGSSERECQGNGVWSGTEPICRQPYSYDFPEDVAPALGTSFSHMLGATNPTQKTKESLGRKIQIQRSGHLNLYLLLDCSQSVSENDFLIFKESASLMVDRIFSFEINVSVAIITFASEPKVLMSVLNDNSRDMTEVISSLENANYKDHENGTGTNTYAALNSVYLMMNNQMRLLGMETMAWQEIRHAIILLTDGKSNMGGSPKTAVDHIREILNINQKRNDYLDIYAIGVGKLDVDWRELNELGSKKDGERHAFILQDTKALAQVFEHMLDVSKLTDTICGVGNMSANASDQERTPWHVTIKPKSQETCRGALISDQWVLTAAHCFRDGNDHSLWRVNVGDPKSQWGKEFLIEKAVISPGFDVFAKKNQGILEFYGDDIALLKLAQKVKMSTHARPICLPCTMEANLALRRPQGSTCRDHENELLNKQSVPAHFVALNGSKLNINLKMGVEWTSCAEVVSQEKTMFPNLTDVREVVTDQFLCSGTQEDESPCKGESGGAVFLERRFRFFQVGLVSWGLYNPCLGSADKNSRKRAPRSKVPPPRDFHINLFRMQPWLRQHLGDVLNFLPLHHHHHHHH

human C2 V465A = target: T4, human C2 V465A (human, UniProt P06681 21-752); experiment: SPR, mAb captured, C2 mutant analyte;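 also: Anti-C2 mAbs captured on goat anti-human IgG Biacore CM5 chips, alanine or serine C2 surface mutants flowed over at 37 °C, double-referenced sensorgrams fitted to a 1:1 binding model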
T4 sequence: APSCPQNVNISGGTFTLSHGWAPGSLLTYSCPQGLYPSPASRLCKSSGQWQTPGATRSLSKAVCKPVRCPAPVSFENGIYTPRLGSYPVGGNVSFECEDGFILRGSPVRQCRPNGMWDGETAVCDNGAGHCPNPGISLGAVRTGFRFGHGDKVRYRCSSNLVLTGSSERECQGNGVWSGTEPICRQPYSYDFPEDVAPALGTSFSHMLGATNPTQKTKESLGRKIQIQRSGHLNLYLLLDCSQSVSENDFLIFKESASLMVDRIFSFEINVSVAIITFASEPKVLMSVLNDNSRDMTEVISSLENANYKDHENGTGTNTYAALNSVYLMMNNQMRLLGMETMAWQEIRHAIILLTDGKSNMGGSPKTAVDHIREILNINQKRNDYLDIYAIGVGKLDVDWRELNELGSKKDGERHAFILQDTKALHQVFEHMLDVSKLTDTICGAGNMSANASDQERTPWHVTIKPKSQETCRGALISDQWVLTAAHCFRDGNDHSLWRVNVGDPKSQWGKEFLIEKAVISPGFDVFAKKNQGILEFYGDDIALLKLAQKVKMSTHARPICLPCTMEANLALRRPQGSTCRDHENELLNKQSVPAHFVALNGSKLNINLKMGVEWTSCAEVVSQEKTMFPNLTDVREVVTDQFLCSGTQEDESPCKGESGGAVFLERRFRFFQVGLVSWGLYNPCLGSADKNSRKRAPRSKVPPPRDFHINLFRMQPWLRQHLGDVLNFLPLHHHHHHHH

Row | Binder | Fold diff (human C2 V455A) [fold] | Fold diff (human C2 A472S) [fold] | Kd (human C2 H446A) [nM] | Kd (human C2 V465A) [nM]
1 | RF16-242 (antibody, human IgG4 S228P, lambda, V domains shown, pH-dependent anti-C2 antibody from a phage display library) VH: EVQLLQSGAEVKKPGESLKISCKGSGYSFTSYWIGWVRQMPGKGLEWMGIIYPGDSDTRYSPSFQGQVTISADKSISTAYLQWSSLKASDTAMYYCARRGHYGDYFDYWGQGTLVTVSS VL: SYELTQPPSVSVSPGQTARITCSGDALPKKYAYWYHQKSGQAPVLVIYEDRRRPSEIPERFSGSSSGTMATLTITGAQVEDEGVYFCYSRDRAGNQRVFGGGTQLTVLG | 1 | 7 |  | 
2 | RF16-214 (antibody, V domains shown) VH: EVQLLESGGGLVQPGGSLRLSCAASGFTFSWYQMMWVRQAPGKGLEWVSRIYPSGGGTAYADSVKGRFTISRDNSKNTLYLQMNSLRAEDTAVYYCARDAGYGDNWGQGTLVTVSS VL: QSALTQPPSVSVSPGQTASITCSGDKLGEKYASWYQQKAGQSPVMVIYQDRKRPSGIPERFSGSNSGNTATLTISGTQAMDEADYYCQAWDTRAVVFGGGTKLTVLG |  |  | 153 | 72.7
